These results are taken from publication PMC9000915.

This test concerns the target gp41 subunit of ADA.CM.v4 Env on hVLPs (CTD truncated, stop codon at 756) (HIV-1 (subtype B isolate ADA)). As to the kind of experiment: cryo-EM structure; cryo-ET with sub-tomogram averaging of Env on purified, AT-2-treated ADA.CM.v4 hVLPs; C3 map 9.13 Å, C1 map 10.67 Å; PDB 6ULC fitted as rigid body.

The term stoichiometry N denotes a count of units in the complex or per binding partner. For the substance “gp41 subunit of ADA.CM.v4 Env on hVLPs (CTD truncated, stop codon at 756) (natural protein)”, the stoichiometry N was 3.
